The source of these data is PMC7515736, “Genome-wide binding of [sequence]3 and AGAMOUS complexes determined by sequential DNA-affinity purification sequencing”.

Data set [1] addresses SEP3Δtet (SEP3 splice variant);AG (AGAMOUS) (Arabidopsis thaliana;Arabidopsis …, UniProt F4I972;P17839 1-237;1-252, del161-174|). As to the kind of experiment: EMSA; dimer; EMSA as in the authors' ref. 20 (buffer, salt, pH, temperature not given); Cy5 probes; unpurified wheat germ TnT proteins. The conditions noted are these: protein: ivt;ivt; tags: C-terminal 3xFLAG;C-terminal 5xMyc; copies: 1;1; label: Cy5; blunt. Background: Mobility shift assays separate free from complexed probe on a gel.

The next data set addresses SEP3 (…3);AG (AGAMOUS) (Arabidopsis thaliana;Arabidopsis …, UniProt O22456;P17839 1-251;1-252, |). As to the kind of experiment: EMSA; tetramer; EMSA as in the authors' ref. 20 (buffer, salt, pH, temperature not given); Cy5 probes; unpurified wheat germ TnT proteins. The conditions noted are these: protein: ivt;ivt; tags: C-terminal 3xFLAG;C-terminal 5xMyc; copies: 1;1; label: Cy5; blunt.

SEP3 (…3);AG (AGAMOUS), sequence (O22456 whole entry, chain 1 of 2): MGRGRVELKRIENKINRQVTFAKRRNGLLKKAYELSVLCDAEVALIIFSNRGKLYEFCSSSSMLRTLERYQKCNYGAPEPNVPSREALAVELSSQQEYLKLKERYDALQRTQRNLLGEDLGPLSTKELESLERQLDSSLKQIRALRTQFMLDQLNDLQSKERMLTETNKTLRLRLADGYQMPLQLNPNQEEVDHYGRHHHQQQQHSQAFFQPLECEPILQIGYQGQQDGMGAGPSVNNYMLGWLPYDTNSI
SEP3 (…3);AG (AGAMOUS), sequence (P17839 whole entry, chain 2 of 2): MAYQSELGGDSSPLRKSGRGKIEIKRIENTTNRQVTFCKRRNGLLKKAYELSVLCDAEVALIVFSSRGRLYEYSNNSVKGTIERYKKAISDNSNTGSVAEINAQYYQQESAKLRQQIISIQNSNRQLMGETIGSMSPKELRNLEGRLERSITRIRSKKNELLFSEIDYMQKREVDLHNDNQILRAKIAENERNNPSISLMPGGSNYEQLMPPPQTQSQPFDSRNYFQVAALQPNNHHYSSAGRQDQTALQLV
SEP3Δtet (SEP3 splice variant);AG (AGAMOUS), sequence (P17839 other isoform, or with tags, fused parts or gaps del161-174| | mutant, chain 1 of 2): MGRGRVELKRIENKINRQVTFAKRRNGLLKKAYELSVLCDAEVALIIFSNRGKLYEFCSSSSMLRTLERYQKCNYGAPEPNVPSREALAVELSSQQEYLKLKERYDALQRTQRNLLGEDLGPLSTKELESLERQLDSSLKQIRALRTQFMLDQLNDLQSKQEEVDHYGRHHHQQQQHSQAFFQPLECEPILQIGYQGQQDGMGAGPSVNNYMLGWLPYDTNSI
SEP3Δtet (SEP3 splice variant);AG (AGAMOUS), sequence (P17839 whole entry, stated change not applied, chain 2 of 2, canonical isoform): as the sequence (P17839 whole entry, chain 2 of 2) above

B1: KNU +5 (96 bp) (dsDNA)
DNA 1: AGAGAAACATAGAAACCTTCCATGTTTGGCAATTTCATCTTGGAAGTCAGCTTGATTCACTCTCTCTTGTCTTCTTTGTGCATCACAAGAACAACA
DNA 2: TGTTGTTCTTGTGATGCACAAAGAAGACAAGAGAGAGTGAATCAAGCTGACTTCCAAGATGAAATTGCCAAACATGGAAGGTTTCTATGTTTCTCT
Consider B1, for which the binding result in data set [1] is on record as “binds”.

B2: KNU WT (dsDNA)
DNA 1: GGTAAGAGAAACATAGAAACCTTCCATGTTTGGCAATTTCATCTTGGAACTTGATTCACTCTCTCTTGTCTTCTTTGTGCATCACAAGAACAACAA
DNA 2: TTGTTGTTCTTGTGATGCACAAAGAAGACAAGAGAGAGTGAATCAAGTTCCAAGATGAAATTGCCAAACATGGAAGGTTTCTATGTTTCTCTTACC
As to B2, the binding result (in data set [1]; with SEP3 (…3);AG (AGAMOUS)) was “binds” throughout.

B3: KNU +10 (96 bp) (dsDNA)
DNA 1: AAACATAGAAACCTTCCATGTTTGGCAATTTCATCTTGGAAGTCAGTAGCTCTTGATTCACTCTCTCTTGTCTTCTTTGTGCATCACAAGAACAAC
DNA 2: GTTGTTCTTGTGATGCACAAAGAAGACAAGAGAGAGTGAATCAAGAGCTACTGACTTCCAAGATGAAATTGCCAAACATGGAAGGTTTCTATGTTT
B3: the binding result (in data set [1]; with SEP3 (…3);AG (AGAMOUS)) was “binds” each time.

B4: KNU -5 (96 bp) (dsDNA)
DNA 1: AGAGGGTAAGAGAAACATAGAAACCTTCCATGTTTGGCAATTTCATCTTGGAACTTACTCTCTCTTGTCTTCTTTGTGCATCACAAGAACAACAAA
DNA 2: TTTGTTGTTCTTGTGATGCACAAAGAAGACAAGAGAGAGTAAGTTCCAAGATGAAATTGCCAAACATGGAAGGTTTCTATGTTTCTCTTACCCTCT
Turning to B4, the binding result in data set [1] is recorded as “binds”.

B5: KNU -10 (96 bp) (dsDNA)
DNA 1: GAAAGAGGGTAAGAGAAACATAGAAACCTTCCATGTTTGGCAATTTCATCTTGGACTCTCTCTTGTCTTCTTTGTGCATCACAAGAACAACAAATA
DNA 2: TATTTGTTGTTCTTGTGATGCACAAAGAAGACAAGAGAGAGTCCAAGATGAAATTGCCAAACATGGAAGGTTTCTATGTTTCTCTTACCCTCTTTC
Take B5: the binding result (in data set [1]; with SEP3 (…3);AG (AGAMOUS)) was “binds” each time.

B6: KNU -10 probe (86 bp) (dsDNA)
DNA 1: GGTAAGAGAAACATAGAAACCTTCCATGTTTGGCAATTTCATCTTGGACTCTCTCTTGTCTTCTTTGTGCATCACAAGAACAACAA
DNA 2: TTGTTGTTCTTGTGATGCACAAAGAAGACAAGAGAGAGTCCAAGATGAAATTGCCAAACATGGAAGGTTTCTATGTTTCTCTTACC
Turning to B6, the binding result with SEP3 (…3);AG (AGAMOUS) is “binds”.

B7: KNU +10 probe (106 bp) (dsDNA)
DNA 1: GGTAAGAGAAACATAGAAACCTTCCATGTTTGGCAATTTCATCTTGGAAGTCAGTAGCTCTTGATTCACTCTCTCTTGTCTTCTTTGTGCATCACAAGAACAACAA
DNA 2: TTGTTGTTCTTGTGATGCACAAAGAAGACAAGAGAGAGTGAATCAAGAGCTACTGACTTCCAAGATGAAATTGCCAAACATGGAAGGTTTCTATGTTTCTCTTACC
Turning to B7, in the data set with SEP3 (…3);AG (AGAMOUS), the binding result is “binds”.
